From US20100298213A1, “Pharmaceutically Active Insulin Receptor-Modulating Molecules” (Novo Nordisk A/S, priority 2004, published 2010)
Square brackets hold non-standard residues; d marks the D form. Ends that are not written are not given here. Dip = N[C@H](C(=O)O)C(c1ccccc1)c1ccccc1; Aib = CC(C)(N)C(=O)O

How the values were obtained:
[1] = target: HIR +11 (human insulin receptor, B isoform) (Homo sapiens, UniProt P06213); test: Binding of IM peptides to IR isoform HIR +11; conditions: +11 (B) isoform
Description: (§1) A number of IRBPs (S519; S557; S597; S636; S667; S733; S671; S660; S696; S574; S700; S626; and S726), some of which described in the prior patent documents, were applied to A and B isoforms (−11 and +11 isoforms) of the human, rat, and pig insulin receptors (HIR, RIR, and PIR) using standard methods.

[2] = target: RIR +11 (rat insulin receptor, B isoform) (Rattus norvegicus, UniProt P15127); test: Binding of IM peptides to IR isoform RIR +11; conditions: +11 (B) isoform
Sequence of RIR +11 (rat insulin receptor, B isoform) (P15127 27-759 limits assumed): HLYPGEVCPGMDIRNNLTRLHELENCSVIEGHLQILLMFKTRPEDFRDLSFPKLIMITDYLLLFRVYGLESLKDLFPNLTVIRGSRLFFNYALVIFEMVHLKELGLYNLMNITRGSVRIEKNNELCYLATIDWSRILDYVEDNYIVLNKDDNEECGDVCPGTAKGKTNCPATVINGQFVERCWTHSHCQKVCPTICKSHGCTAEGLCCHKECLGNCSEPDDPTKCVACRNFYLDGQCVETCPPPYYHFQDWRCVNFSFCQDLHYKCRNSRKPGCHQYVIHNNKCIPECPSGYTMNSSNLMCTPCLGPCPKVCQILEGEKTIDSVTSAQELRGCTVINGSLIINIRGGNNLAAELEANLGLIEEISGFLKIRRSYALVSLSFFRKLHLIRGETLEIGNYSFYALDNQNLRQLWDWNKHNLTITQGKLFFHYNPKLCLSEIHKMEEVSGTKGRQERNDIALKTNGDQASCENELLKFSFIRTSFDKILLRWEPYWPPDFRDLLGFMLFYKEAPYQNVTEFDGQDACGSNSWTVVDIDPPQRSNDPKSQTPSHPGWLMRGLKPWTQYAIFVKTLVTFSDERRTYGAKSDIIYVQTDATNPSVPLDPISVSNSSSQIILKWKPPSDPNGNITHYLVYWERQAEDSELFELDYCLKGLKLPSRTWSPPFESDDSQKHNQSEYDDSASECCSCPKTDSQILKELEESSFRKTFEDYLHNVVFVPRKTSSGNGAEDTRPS
Sequence of RIR +11 (rat insulin receptor, B isoform) (P15127 764-1383 partner limits assumed): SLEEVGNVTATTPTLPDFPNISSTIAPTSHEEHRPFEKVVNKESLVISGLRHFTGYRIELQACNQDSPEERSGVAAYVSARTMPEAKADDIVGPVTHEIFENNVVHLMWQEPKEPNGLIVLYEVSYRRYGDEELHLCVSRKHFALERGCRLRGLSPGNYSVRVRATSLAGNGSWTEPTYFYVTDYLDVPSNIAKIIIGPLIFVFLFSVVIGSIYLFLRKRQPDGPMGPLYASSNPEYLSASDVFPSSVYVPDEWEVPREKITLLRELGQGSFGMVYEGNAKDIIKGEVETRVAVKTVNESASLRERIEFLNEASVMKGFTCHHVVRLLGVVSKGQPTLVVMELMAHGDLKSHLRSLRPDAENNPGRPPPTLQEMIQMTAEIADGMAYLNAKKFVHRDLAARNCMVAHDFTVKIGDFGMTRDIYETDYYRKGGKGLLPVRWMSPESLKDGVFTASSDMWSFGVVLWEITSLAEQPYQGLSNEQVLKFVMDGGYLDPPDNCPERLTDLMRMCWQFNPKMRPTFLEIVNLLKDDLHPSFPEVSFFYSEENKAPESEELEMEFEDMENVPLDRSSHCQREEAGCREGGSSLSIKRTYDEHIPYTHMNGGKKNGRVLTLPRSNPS
Description: as §1

mouse adipocytes = test: Glucose uptake in mouse adipocytes (FFC); type: cell-based; conditions: for EC50 (FFC) rel. to HI: EC50 value expressed relative to that of human insulin in the same assay; for EC50: concentration needed for half maximal uptake of glucose in mouse adipocytes
human IR (HIR) = human IR (HIR) (Homo sapiens, UniProt P06213); test: Human IR affinity (Kd); type: binding; conditions: Kd value expressed relative to that of human insulin in the same assay
[3] = test system: pepsin, elastase, chymotrypsin, trypsin, and carboxy-peptidase A; test: Digestion with digestive enzymes (enzymatic stability); type: in vitro ADME
Description: A novel IRBP was derived from S597 by introducing the unusual amino acid residues aminoisobutyric acid and diphenylalanine into the Xaa7 position of the N-terminal Formula 6-like IRBAAS sequence of S597 (in place of Ala) and into the Xaa1 position of the C-terminal Formula 1 sequence (in place of Phe).

wistar rats = test: Blood glucose after administration to wistar rats; type: in vivo, rat
Protocol: IRBP S667 was and human insulin were administered to wistar rats (S667 at 1.25 nmol/kg; 2.5 nmol/kg; and 5 nmol/kg; human insulin (HI) at 1.25 nmol/kg) using standard techniques, such as are described in the prior patent documents. Glucose measurements were taken 20 minutes prior to administration, at administration, and 20; 40; 60; 80; 120; and 180 minutes after administration. These measurements are compared in FIG. 3.

[4] = target: HIR −11 (human insulin receptor, A isoform) (Homo sapiens, UniProt P06213); test: Binding of IM peptides to IR isoform HIR −11; conditions: −11 (A) isoform
Description: as §1

[5] = target: RIR −11 (rat insulin receptor, A isoform) (Rattus norvegicus, UniProt P15127); test: Binding of IM peptides to IR isoform RIR −11; conditions: −11 (A) isoform
Description: as §1

[6] = test system: PIR −11 (pig insulin receptor, A isoform); test: Binding of IM peptides to IR isoform PIR −11; conditions: −11 (A) isoform
Description: as §1

[7] = test system: PIR +11 (pig insulin receptor, B isoform); test: Binding of IM peptides to IR isoform PIR +11; conditions: +11 (B) isoform
Description: as §1

[8] = target: insulin receptor on mouse adipocytes (mouse, UniProt P15208 28-1372); test: cell-based or functional assay
[9] = target: human insulin receptor isoform with exon 11 (human) (UniProt P06213); test: receptor binding, standard methods (FIG. 2)
[10] = target: rat insulin receptor isoform with exon 11 (rat) (UniProt P15127); test: receptor binding, standard methods (FIG. 2)
Sequence of rat insulin receptor isoform with exon 11 (rat) (P15127 27-1383, stated change not applied): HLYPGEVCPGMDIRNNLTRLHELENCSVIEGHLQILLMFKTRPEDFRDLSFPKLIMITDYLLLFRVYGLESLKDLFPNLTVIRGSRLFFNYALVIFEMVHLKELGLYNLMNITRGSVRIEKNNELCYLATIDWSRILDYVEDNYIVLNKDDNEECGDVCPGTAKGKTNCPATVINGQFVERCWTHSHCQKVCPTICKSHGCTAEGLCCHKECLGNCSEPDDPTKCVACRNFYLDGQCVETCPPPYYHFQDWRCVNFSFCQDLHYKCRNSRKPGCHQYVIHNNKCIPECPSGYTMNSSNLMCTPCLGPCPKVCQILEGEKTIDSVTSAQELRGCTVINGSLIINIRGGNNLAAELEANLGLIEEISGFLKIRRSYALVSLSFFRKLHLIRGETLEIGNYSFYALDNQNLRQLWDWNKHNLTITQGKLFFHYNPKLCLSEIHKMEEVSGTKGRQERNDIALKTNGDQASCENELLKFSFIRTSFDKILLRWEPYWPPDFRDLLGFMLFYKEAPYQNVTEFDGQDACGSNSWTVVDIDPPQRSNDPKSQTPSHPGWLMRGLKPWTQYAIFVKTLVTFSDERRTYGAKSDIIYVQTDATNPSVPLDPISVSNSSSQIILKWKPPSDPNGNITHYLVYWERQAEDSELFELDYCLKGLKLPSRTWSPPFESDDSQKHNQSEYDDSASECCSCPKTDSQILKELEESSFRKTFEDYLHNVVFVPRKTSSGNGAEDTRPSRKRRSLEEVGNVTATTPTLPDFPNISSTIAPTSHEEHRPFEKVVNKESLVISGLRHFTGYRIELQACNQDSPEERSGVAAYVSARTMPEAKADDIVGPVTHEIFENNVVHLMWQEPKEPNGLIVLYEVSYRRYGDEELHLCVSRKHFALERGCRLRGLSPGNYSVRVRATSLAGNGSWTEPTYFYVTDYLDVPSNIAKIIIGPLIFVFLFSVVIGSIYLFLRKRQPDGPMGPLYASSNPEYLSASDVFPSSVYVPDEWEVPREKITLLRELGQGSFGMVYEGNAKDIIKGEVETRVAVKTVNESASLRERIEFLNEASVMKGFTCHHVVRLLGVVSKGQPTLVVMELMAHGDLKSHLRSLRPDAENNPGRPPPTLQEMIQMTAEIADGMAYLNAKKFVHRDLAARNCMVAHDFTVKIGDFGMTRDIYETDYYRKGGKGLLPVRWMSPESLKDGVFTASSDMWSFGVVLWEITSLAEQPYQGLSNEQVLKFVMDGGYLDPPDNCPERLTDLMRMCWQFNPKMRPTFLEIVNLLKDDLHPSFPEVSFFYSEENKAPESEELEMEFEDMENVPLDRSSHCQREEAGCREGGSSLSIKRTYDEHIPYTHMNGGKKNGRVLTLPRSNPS

[11] = target: T1, human insulin receptor isoform without exon 11 (human, UniProt P06213-2 28-1370, limits assumed); test: receptor binding, standard methods (FIG. 2)
T1 construct: also called HIR-11; HIR - 11
Description: as §1

[12] = target: T2, rat insulin receptor isoform without exon 11 (rat, UniProt P15127-2 27-1371, limits assumed); test: receptor binding, standard methods (FIG. 2)
T2 construct: also called RIR-11; RIR - 11
Description: as §1

[13] = target: T3, pig insulin receptor isoform without exon 11 (pig, UniProt F1SCK8 28-746; F1SCK8 751-1370); test: receptor binding, standard methods (FIG. 2)
T3 construct: also called PIR-11; PIR - 11
T3 sequence (alpha, as listed by the source limits assumed, stated change not applied, form in doubt, chain 1 of 2): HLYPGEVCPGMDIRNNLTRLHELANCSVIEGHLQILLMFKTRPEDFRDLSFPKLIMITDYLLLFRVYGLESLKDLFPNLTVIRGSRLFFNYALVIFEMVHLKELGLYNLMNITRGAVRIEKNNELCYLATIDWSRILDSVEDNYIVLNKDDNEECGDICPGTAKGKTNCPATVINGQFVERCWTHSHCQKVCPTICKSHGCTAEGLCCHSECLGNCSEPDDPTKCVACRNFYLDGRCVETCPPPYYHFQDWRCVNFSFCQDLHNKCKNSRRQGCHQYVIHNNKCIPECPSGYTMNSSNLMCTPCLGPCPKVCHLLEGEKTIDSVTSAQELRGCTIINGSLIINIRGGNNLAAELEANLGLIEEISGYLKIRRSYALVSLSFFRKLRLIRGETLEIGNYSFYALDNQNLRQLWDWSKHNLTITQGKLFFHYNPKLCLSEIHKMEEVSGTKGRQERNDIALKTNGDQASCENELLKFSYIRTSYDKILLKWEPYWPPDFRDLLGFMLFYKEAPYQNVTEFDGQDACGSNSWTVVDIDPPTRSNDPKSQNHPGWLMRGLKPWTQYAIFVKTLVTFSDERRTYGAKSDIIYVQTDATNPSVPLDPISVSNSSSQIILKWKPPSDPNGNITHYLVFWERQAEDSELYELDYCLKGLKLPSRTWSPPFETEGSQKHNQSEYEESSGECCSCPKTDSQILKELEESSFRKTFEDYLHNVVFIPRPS
T3 sequence (beta, as listed by the source limits assumed, stated change not applied, form in doubt, chain 2 of 2): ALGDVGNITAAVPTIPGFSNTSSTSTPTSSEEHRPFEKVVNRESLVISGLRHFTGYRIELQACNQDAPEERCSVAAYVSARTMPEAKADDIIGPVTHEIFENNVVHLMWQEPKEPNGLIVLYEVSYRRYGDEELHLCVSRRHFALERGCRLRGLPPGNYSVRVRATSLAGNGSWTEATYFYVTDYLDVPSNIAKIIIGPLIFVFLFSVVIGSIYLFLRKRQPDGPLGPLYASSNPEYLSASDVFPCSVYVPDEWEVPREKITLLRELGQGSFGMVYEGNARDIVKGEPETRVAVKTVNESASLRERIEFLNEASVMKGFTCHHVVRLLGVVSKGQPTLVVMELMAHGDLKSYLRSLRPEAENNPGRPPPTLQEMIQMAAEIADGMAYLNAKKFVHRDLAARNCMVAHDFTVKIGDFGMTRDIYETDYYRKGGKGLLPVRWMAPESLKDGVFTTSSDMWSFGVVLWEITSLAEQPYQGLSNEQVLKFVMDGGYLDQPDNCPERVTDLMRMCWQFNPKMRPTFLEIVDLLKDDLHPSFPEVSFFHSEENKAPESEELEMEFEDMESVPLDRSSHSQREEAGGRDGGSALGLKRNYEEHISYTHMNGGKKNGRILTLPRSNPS
Description: as §1

[14] = target: T4, pig insulin receptor isoform with exon 11 (pig, UniProt F1SCL0 28-758; F1SCL0 763-1382); test: receptor binding, standard methods (FIG. 2)
T4 construct: also called PIR+11; PIR + 11
T4 sequence (alpha, as listed by the source limits assumed, stated change not applied, form in doubt, chain 1 of 2): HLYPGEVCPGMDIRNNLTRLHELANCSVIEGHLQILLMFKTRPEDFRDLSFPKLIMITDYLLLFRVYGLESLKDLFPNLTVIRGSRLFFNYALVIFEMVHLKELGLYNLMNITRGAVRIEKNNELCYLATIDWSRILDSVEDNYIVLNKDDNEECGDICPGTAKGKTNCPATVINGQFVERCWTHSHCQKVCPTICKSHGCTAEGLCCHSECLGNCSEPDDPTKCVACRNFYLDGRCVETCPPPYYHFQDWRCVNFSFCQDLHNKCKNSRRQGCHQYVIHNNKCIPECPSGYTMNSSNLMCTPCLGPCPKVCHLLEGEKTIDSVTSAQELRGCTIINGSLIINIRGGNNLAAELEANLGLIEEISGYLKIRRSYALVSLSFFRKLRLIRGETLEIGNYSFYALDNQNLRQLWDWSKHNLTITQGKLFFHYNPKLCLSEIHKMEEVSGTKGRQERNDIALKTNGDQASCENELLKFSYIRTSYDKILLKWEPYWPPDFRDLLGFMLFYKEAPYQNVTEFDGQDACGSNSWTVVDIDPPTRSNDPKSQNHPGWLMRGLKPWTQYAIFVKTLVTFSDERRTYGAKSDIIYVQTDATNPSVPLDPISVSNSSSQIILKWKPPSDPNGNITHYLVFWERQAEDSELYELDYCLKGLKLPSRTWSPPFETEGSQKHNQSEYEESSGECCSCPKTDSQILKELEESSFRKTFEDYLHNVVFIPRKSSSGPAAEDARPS
T4 sequence (beta, as listed by the source limits assumed, stated change not applied, form in doubt, chain 2 of 2): as the sequence (beta, as listed by the source limits assumed, stated change not applied, form in doubt, chain 2 of 2) above
Description: as §1

| Molecule | relative affinity HIR +11 [1] | relative affinity RIR +11 [2] | EC50 (FFC) [8] | EC50 (FFC) rel. to HI [8] | relative affinity [9] | relative affinity [10] | relative affinity [11] | relative affinity [12] | relative affinity [13] | relative affinity [14] | further results |
| --- | --- | --- | --- | --- | --- | --- | --- | --- | --- | --- | --- |
| SLEEEWAQIQCEVWGRGCPSESFYGWFERQLG [compound 733] | 290 | 211 | – | – | – | – | – | – | – | – | – |
| GSLDESFYDWFERQLG-(pox)2-SLEEEWAQIQCEVWGRGCPSY [compound 675] | – | – | – | – | – | – | – | – | – | – | EC50 (FFC) rel. to HI (mouse adipocytes): 25%; EC50 (mouse adipocytes): 0.26 nM |
| SLEEEWAQIECEVYGRGCPSVRGFQGGTVWPGYEWLRNAAKK [compound 626] | 78 | 12 | – | – | – | – | – | – | – | – | – |
| Ac-SLEEEW-Aib-QIQCEVWGRPCPSEP-Dip-YGWFHEQLGPP (Ac-SLEEEW[Aib]QIQCEVWGRPCPSEP[Dip]YGWFHEQLGPP; cysteine pairing not given here) [compound 873] | – | – | – | – | – | – | – | – | – | – | Kd (HIR) rel. to HI (human IR (HIR)): 20%; stabilization towards all of the relevant enzymes as compared to S597 [3]: greater than 100 fold |
| Ac-SLE-Aib-EW-Aib-QIQCEVWGRGCPSESFYDWFERQL [compound 663] | – | – | – | – | – | – | – | – | – | – | EC50 (FFC) rel. to HI (mouse adipocytes): 15%; EC50 (mouse adipocytes): 0.43 nM |
| SLEEEWAQIQCEVWGRGCPSESFYGWFERQL [compound 667] | 127 | 112 | – | – | – | – | – | – | – | – | dose dependence of glucose level modulation (wistar rats; 1.25, 2.5, 5 nmol/kg): dose-dependent IR-mediated glucose level modulation; blood glucose lowering compared with human insulin (wistar rats; S667 1.25, 2.5, 5 nmol/kg, HI 1.25 nmol/kg, up to 180 minutes): lower blood glucose to levels similar to human insulin at similar dosages |
| SLEEEWAQIQCEVWGRGCPSESFYDWFERQL [compound 636] | 117 | 79 | – | – | – | – | – | – | – | – | – |
| SLEEEWAQIQEEVWGRGEPSESFYDWFERQL [compound 700] | 53 | 13 | – | – | – | – | – | – | – | – | relative affinity HIR −11 [4]: 70; relative affinity RIR −11 [5]: 10; relative affinity PIR −11 [6]: 1.4; relative affinity PIR +11 [7]: 4.3 |
| Ac-SLEEEWAQIECEVWGRGCPSEGFYNAIELLS (cysteine pairing not given here) [S726] | – | – | 19 nM | 0.3% | 121 | 7.7 | 83 | 13 | 1.3 | 5.9 | – |
| SLEEEWAQIECEVYGRGCPSVRGFQGGTVWPGYEWLRNAAKK [S626] | – | – | 9.7 nM | 0.4% | 78 | 12 | 59 | 11 | 1 | 3 | – |
| Ac-SLEEEWAQIQCEVWGRGCPSESFYDWFERQL (cysteine pairing not given here) [S636] | – | – | 0.056 nM | 98% | 117 | 79 | 106 | 50 | 32 | 68 | – |
| SLEEEWAQVECEVYERGCPSESFYDWFERQL [S696] | – | – | 870 nM | – | 3.1 | 0.2 | 3.3 | 0.3 | 0.3 | 0.8 | – |
| Ac-SLEEEWAQIQCEVWGRGCPSESFYGWFERQL (cysteine pairing not given here) [S667] | – | – | 0.21 nM | 31% | 127 | 112 | 111 | 44 | 47 | 84 | – |

The next lines start with results.

| relative affinity HIR +11 [1] | relative affinity RIR +11 [2] | EC50 (FFC) [8] | EC50 (FFC) rel. to HI [8] | relative affinity [9] | relative affinity [10] | relative affinity [11] | relative affinity [12] | relative affinity [13] | relative affinity [14] | Molecule | further results |
| --- | --- | --- | --- | --- | --- | --- | --- | --- | --- | --- | --- |
| – | 9 | – | – | – | – | – | – | – | – | MeO-PEG5000-SLEEEWAQIECEVYGRGCPSESFYDWFERQL ({MeO‑PEG5000}-SLEEEWAQIECEVYGRGCPSESFYDWFERQL; cysteine pairing not given here) [compound 660] | – |
| 3.1 | 0.2 | – | – | – | – | – | – | – | – | SLEEEWAQVECEVYERGCPSESFYDWFERQL [compound 696] | – |
| 8.2 | 2 | – | – | – | – | – | – | – | – | SLEEEWAQIEAEVWGRGAPSESFYDWFERQLG [S574] | – |
| 121 | 7.7 | – | – | – | – | – | – | – | – | SLEEEWAQIECEVWGRGCPSEGFYNAIELLS [compound 726] | – |
| – | – | – | – | 8.2 | 2 | 8.3 | 0.9 | 0.2 | 0.4 | SLEEEWAQIEAEVWGRGAPSESFYDWFERQLG [S574] | – |
| – | – | 0.12 nM | 61% | 290 | 211 | 281 | 179 | 111 | 228 | Ac-SLEEEWAQIQCEVWGRGCPSESFYGWFERQLG (cysteine pairing not given here) [S733] | – |
| – | – | 2 nM | 3.3% | 58 | 9 | 52 | 6.5 | 5.5 | 12 | {MeO‑PEG5000}-SLEEEWAQIECEVYGRGCPSESFYDWFERQL (cysteine pairing not given here) [S660] | – |
